# Results: publication PMC8486872 (2021)
# Substitutions are numbered along the chain they refer to.
# B1: LD3_v3 (designed binder)
# chain: QRWELALGRFLEYLSWVSTLSEQVQEELLSSQVTQELRALMDETMKELKAYKSELEEQLTPVAEETRARLSKELQAAQARLGADMEDVRGRLVQYRGEVQAMLGQSTEELRVRLASHLIALALRLIGAAFDLQKRLAVY
# B2: LD3_v1 (designed binder)
# chain: B1 chain with E12A, A128D
# B3: LD3_v2 (designed binder)
# chain: B1 chain with R124A, A128D
# Target: Bcl2 (UniProt P10415 1-239)
# Assay: SPR
# Bcl2, sequence (P10415 whole entry): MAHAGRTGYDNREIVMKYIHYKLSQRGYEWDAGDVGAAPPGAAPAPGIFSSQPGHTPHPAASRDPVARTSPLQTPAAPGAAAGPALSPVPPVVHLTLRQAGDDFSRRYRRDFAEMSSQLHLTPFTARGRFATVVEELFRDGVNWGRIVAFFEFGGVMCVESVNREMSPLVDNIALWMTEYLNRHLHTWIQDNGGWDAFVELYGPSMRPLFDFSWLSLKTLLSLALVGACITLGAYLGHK
row,Binder,Kd [nM]
1,B1,147
2,B2,16.8
3,B3,64.1
